The results in this text go back to patent US20230265151A1, “GIP/GLP1 CO-AGONIST COMPOUNDS” (priority 2020, published 2023).

The chains are these.
T1: human glucose-dependent insulinotropic polypeptide (GIP) receptor (human) (UniProt P48546)
T1 sequence (looked up): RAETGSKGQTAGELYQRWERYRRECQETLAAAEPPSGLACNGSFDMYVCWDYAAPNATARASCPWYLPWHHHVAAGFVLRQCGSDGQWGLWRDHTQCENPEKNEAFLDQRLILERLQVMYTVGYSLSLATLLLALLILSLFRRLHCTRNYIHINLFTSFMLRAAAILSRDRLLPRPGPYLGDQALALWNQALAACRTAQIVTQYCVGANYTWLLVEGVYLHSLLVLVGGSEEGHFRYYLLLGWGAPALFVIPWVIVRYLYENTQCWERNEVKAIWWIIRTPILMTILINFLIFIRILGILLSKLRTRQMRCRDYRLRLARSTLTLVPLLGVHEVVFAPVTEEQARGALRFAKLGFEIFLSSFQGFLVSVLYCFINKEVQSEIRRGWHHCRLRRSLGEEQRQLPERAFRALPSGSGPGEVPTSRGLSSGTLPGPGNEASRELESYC

T2: human GIP receptor (human, UniProt P48546 22-466)
T2 sequence (looked up): T1 sequence (looked up)

B1: Example 223 (peptide)
peptide: YXEGTXTSDXSIXLDXIAQXEFIXXLIKGGPSSGAPPPSK
modifications: Y-Aib-EGT-αMeF(2F)-TSD-4Pal-SI-αMeL-LD-Orn-IAQ-Aib-EFI-(D-Glu)-αMeY-LIK((2-[2-(2-Amino-ethoxy)-ethoxy]-acetyl)2-CO-(CH2)12-CO2H)GGPSSGAPPPSK((2-[2-(2-Amino-ethoxy)-ethoxy]-acetyl)2-CO-(CH2)12-CO2H)-NH2
B2: Example 241 (peptide)
peptide: B1 peptide with X10Y, S11X, E21K, K28E
modifications: Y-Aib-EGT-αMeF(2F)-TSDY-Aib-I-αMeL-LD-Orn-IAQ-Aib-K((2-[2-(2-Amino-ethoxy)-ethoxy]-acetyl)2-(γ-Glu)-(10-(4-carboxyphenoxy)decanoyl))FI-(D-Glu)-αMeY-LIEGGPSSGAPPPSK((2-[2-(2-Amino-ethoxy)-ethoxy]-acetyl)2-(γ-Glu)-(10-(4-carboxyphenoxy)decanoyl))-NH2
B3: Example 229 (peptide)
peptide: B1 peptide
modifications: Y-Aib-EGT-αMeF(2F)-TSD-4Pal-SI-αMeL-LD-Orn-IAQ-Aib-EFI-(D-Glu)-αMeY-LIK((2-[2-(2-Amino-ethoxy)-ethoxy]-acetyl)3-(γ-Glu)-CO-(CH2)12-CO2H)GGPSSGAPPPSK((2-[2-(2-Amino-ethoxy)-ethoxy]-acetyl)3-(γ-Glu)-CO-(CH2)12-CO2H)-NH2
B4: Example 242 (peptide)
peptide: B1 peptide with S11X, E21K, K28E
modifications: Y-Aib-EGT-αMeF(2F)-TSD-4Pal-Aib-I-αMeL-LD-Orn-IAQ-Aib-K(2-[2-(2-Amino-ethoxy)-ethoxy]-acetyl)2-(γ-Glu)-(11-(4-carboxyphenoxy)undecanoyl)FI-(D-Glu)-αMeY-LIEGGPSSGAPPPSK((2-[2-(2-Amino-ethoxy)-ethoxy]-acetyl)2-(γ-Glu)-(11-(4-carboxyphenoxy)undecanoyl)-NH2)
B5: Example 235 (peptide)
peptide: B1 peptide with X10Y, S11X, E21K, K28E
modifications: Y-Aib-EGT-aMeF(2F)-TSDY-Aib-I-aMeL-LD-Orn-IAQ-Aib-K((2-[2-(2-Amino-ethoxy)-ethoxy]-acetyl)2-(γ-Glu)-CO-(CH2)12-CO2H)FI-(D-Glu)-αMeY-LIEGGPSSGAPPPSK((2-[2-(2-Amino-ethoxy)-ethoxy]-acetyl)2-(γ-Glu)-CO-(CH2)12-CO2H)-NH2
B6: Example 245 (peptide)
peptide: B1 peptide with S11X, I17K, K28E
modifications: Y-Aib-EGT-αMeF(2F)-TSD-4Pal-Aib-I-αMeL-LD-Orn-K((2-[2-(2-Amino-ethoxy)-ethoxy]-acetyl)2-(γ-Glu)-(10-(4-carboxyphenoxy)decanoyl))AQ-Aib-EFI-(D-Glu)-αMeY-LIEGGPSSGAPPPSK((2-[2-(2-Amino-ethoxy)-ethoxy]-acetyl)2-(γ-Glu)-(10-(4-carboxyphenoxy)decanoyl))-NH2
B7: Example 232 (peptide)
peptide: B1 peptide with X10Y, S11X, I17K, K28E
modifications: Y-Aib-EGT-αMeF(2F)-TSDY-Aib-I-αMeL-LD-Orn-K((2-[2-(2-Amino-ethoxy)-ethoxy]-acetyl)2-(γ-Glu)-CO-(CH2)12-CO2H)AQ-Aib-EFI-(D-Glu)-αMeY-LIEGGPSSGAPPPSK((2-[2-(2-Amino-ethoxy)-ethoxyl-acetyl)2-(γ-Glu)-CO-(CH2)12-CO2H)-NH2
B8: Example 238 (peptide)
peptide: B1 peptide with X10Y, S11X, I17K, K28E
modifications: Y-Aib-EGT-αMeF(2F)-TSDY-Aib-I-αMeL-LD-Orn-K((2-[2-(2-Amino-ethoxy)-ethoxy]-acetyl)2-(γ-Glu)-(10-(4-carboxyphenoxy)decanoyl))AQ-Aib-EFI-(D-Glu)-αMeY-LIEGGPSSGAPPPSK((2-[2-(2-Amino-ethoxy)-ethoxy]-acetyl)2-(γ-Glu)-(10-(4-carboxyphenoxy)decanoyl))-NH2

Where a chain is given by its changes, count along the chain named.

The first assay deals with human glucagon receptor (human) (UniProt P47871). Put plainly: cell-based or functional assay.
In turn, B1 yielded a cAMP EC50 greater than 9950 nM.

Regarding B2, the cAMP EC50 was greater than 9950 nM.

Take B3: the cAMP EC50 is greater than 9950 nM.

Regarding B4, the cAMP EC50 is greater than 9950 nM.

With B5, the cAMP EC50 is greater than 9950 nM.

For B6, the cAMP EC50 is greater than 9950 nM.

With B7, the cAMP EC50 was greater than 9950 nM.

B8 came in with a cAMP EC50 greater than 9950 nM.

In another assay the target is human glucagon-like peptide-1 (GLP-1) receptor (human) (UniProt P43220). The assay can be described thus: cell-based or functional assay.
In turn, B1 came in with a cAMP EC50 of 1.43 nM and a cAMP Emax of 94%.

As for B2, the cAMP EC50 was 0.362 nM and the cAMP Emax was 91%.

Molecule B3 yielded a cAMP EC50 of 2.25 nM and a cAMP Emax of 94.3%.

B4 yielded a cAMP EC50 of 0.584 nM and a cAMP Emax of 96.3%.

In the case of B5, the cAMP EC50 came out at 0.295 nM and the cAMP Emax was 104%.

B6 came in with a cAMP EC50 of 1.88 nM and a cAMP Emax of 88.9%.

For the molecule B7, the cAMP EC50 stood at 0.565 nM and the cAMP Emax came out at 103%.

Consider B8, for which the cAMP EC50 stood at 1.03 nM and the cAMP Emax is 107%.

The target in the next assay is T1, human glucose-dependent insulinotropic polypeptide (GIP) receptor (human). The assay can be described thus: cell-based or functional assay.
The molecule B1 returned a cAMP EC50 of 0.0252 nM and a cAMP Emax of 103%.

B2 returned a cAMP EC50 of 0.0213 nM and a cAMP Emax of 105%.

Consider B3, for which the cAMP EC50 came out at 0.0253 nM and the cAMP Emax was 103%.

B4 returned a cAMP EC50 of 0.0197 nM and a cAMP Emax of 100%.

B5 gave a cAMP EC50 of 0.0168 nM and a cAMP Emax of 99.3%.

B6 yielded a cAMP EC50 of 0.0195 nM and a cAMP Emax of 96.7%.

Consider B7, for which the cAMP EC50 amounted to 0.0192 nM and the cAMP Emax came to 101%.

Consider B8, for which the cAMP EC50 is 0.0214 nM and the cAMP Emax came to 104%.

The next assay addresses T2, human GIP receptor. The assay can be described thus: cell-based or functional assay.
Take B1: the “cAMP EC50 (1.0% HSA)” value amounted to 7.84 nM and the “cAMP Emax (1.0% HSA)” value was determined as 79.2%.

For the molecule B2, the “cAMP EC50 (1.0% HSA)” value amounted to 8.02 nM and the “cAMP Emax (1.0% HSA)” value is 84.9%.

Regarding B3, the “cAMP EC50 (1.0% HSA)” value was 7.35 nM and the “cAMP Emax (1.0% HSA)” value was found to be 80.5%.

In the case of B4, the “cAMP EC50 (1.0% HSA)” value amounted to 11 nM and the “cAMP Emax (1.0% HSA)” value was 83.9%.

On to B5, for which the “cAMP EC50 (1.0% HSA)” value came to 10.1 nM and the “cAMP Emax (1.0% HSA)” value turned out to be 92.2%.

Turning to B6, the “cAMP EC50 (1.0% HSA)” value is 0.552 nM.

B7: the “cAMP EC50 (1.0% HSA)” value stood at 1.86 nM.

On to B8, for which the “cAMP EC50 (1.0% HSA)” value was found to be 1.31 nM.

Another assay has as its target human GLP-1 receptor (human, UniProt P43220 24-463). Put plainly: cell-based or functional assay.
B1: the “cAMP EC50 (1.0% HSA)” value amounted to 90.5 nM and the “cAMP Emax (1.0% HSA)” value is 115%.

Turning to B2, the “cAMP EC50 (1.0% HSA)” value was determined as 103 nM and the “cAMP Emax (1.0% HSA)” value was 105%.

In the case of B3, the “cAMP EC50 (1.0% HSA)” value worked out at 135 nM and the “cAMP Emax (1.0% HSA)” value was 99%.

For B4, the “cAMP EC50 (1.0% HSA)” value is 214 nM and the “cAMP Emax (1.0% HSA)” value worked out at 102%.

For the molecule B5, the “cAMP EC50 (1.0% HSA)” value was determined as 598 nM and the “cAMP Emax (1.0% HSA)” value came out at 152%.

Regarding B6, the “cAMP EC50 (1.0% HSA)” value came to 27 nM and the “cAMP Emax (1.0% HSA)” value worked out at 93.8%.

On to B7, for which the “cAMP EC50 (1.0% HSA)” value turned out to be 33.6 nM and the “cAMP Emax (1.0% HSA)” value was 95.4%.

As to B8, the “cAMP EC50 (1.0% HSA)” value stood at 27.2 nM and the “cAMP Emax (1.0% HSA)” value was determined as 103%.

The next assay concerns the target human glucagon receptor (human, UniProt P47871 26-477). Put plainly: cell-based or functional assay.
As for B1, the “cAMP EC50 (1.0% HSA)” value is greater than 9950 nM.

As to B2, the “cAMP EC50 (1.0% HSA)” value was greater than 9950 nM.

Consider B3, for which the “cAMP EC50 (1.0% HSA)” value is greater than 9950 nM.

For B4, the “cAMP EC50 (1.0% HSA)” value is greater than 9950 nM.

Consider B5, for which the “cAMP EC50 (1.0% HSA)” value was greater than 9950 nM.

Turning to B6, the “cAMP EC50 (1.0% HSA)” value was greater than 9950 nM.

Take B7: the “cAMP EC50 (1.0% HSA)” value was greater than 9950 nM.

In the case of B8, the “cAMP EC50 (1.0% HSA)” value was greater than 9950 nM.
